In US20130156764A1, “NEUTRALIZATION OF FLT3 LIGAND AS A LEUKEMIA THERAPY” (The Johns Hopkins University, priority 2010, published 2013):

Experiments:
[1] = system: primary AML blast samples harboring a FLT3/ITD mutation; test: MTT assay in primary AML blast samples with FLT3/ITD mutation with FL; assay type: cell-based, human; conditions: addition of exogenous FL, all 3 samples
Excerpt: Leukemia cell specimens were provided by the Sidney Kimmel Cancer Center at Johns Hopkins Tumor and Cell Procurement Bank. All patients gave informed consent according to the Declaration of Helsinki. The specimens were obtained by Ficoll purifying mononuclear cells from the peripheral blood patients with FLT3/ITD AML. The mononuclear cells were aliquoted and stored frozen in liquid nitrogen in bovine serum with 10% DMSO for repeated use. Prior to each use, aliquots of these blasts were thawed rapidly into warm culture medium, incubated for 12 hours, and then recentrifuged over Ficoll to eliminate cells dying from the freeze-thaw process. Using this method, blasts were obtained that maintained satisfactory viability (as determined by Trypan blue exclusion) and responsiveness to cytotoxic agents in culture over 72 hours.
Cytotoxicity was assessed using an MTT (Dimethyl-thiazol diphenyl tetrazolium bromide) assay. In selected cases, an Annexin-V binding apoptosis assay was also used to confirm that the cytotoxic effect observed (or lack thereof) was associated with an equivalent degree of apoptosis. MTT (Roche, Indianapolis, Ind.) and Annexin V (Pharmingen, San Diego, Calif.) assays were performed as described previously.
In three primary samples from AML patients with FLT3/ITD mutations (FIG. 8), a similar pattern of response to FL and FLT3 inhibition was observed.

[2] = system: FLT3/ITD in primary AML blasts; test: FL stimulation, FLT3 phosphorylation in primary AML blasts with homozygous FLT3/ITD; assay type: cell-based, human; conditions: 100 ng/mL FL
Experimental: (§1) To study whether further activation of mutant FLT3 receptors in response to FL also occurs in primary cells, experiments were carried on primary AML blasts expressing homozygous FLT3/ITD mutations (i.e., no detectable wild type FLT3 by PCR). The blasts were stimulated with 100 ng/mL FL. […] The survival of AML blasts was assessed by culturing them in complete medium with and without FL for 4 days.

[3] = system: FLT3/ITD and FLT3/TKD in TF1 cells; test: FL stimulation, FLT3 phosphorylation in TF1/ITD and TF1/TKD cells; assay type: cell-based; conditions: FL 15 minutes after serum starvation
Experimental: (§2) TF1 and BaF3 cells were transfected with pCINeo constructs containing either FLT3/ITD or FLT3/TKD mutation by electroporation (Bio-Rad, Hercules, Calif.). Stable transfectants were then selected by limiting dilution in 96-well plates with 1 mg/mL G418 (Invitrogen, Carlsbad, Calif.).
The possibility of further activation of FLT3 mutant receptors by exogenous FL was also tested in cell lines in which FL autocrine, paracrine, or intracrine stimulation of FLT3 receptor might exist. […] TF1 cells expressing FLT3 mutant receptors were starved for 16 hours in serum-free medium and washed once with PBS to deplete soluble FL (either produced by the cells or contained in the serum). These cells were then stimulated with exogenous FL for 15 minutes. More than 2-fold enhancement of FLT3 phosphorylation was detected in both TF1/ITD and TF1/TKD cell lines (FIG. 12A). […] To assess the functional effect of exogenous FL, TF1/ITD and TF1/TKD cells were cultured in serum-free medium in the absence and presence of FL for 48 hours. Apoptosis was assessed by Annexin V and 7AAD staining followed by FACS analysis. […] There was no change of cell cycle status in response to FL in these cells (data not shown).

[4] = system: FLT3/ITD and FLT3/TKD in BaF3 cells; test: FL stimulation, FLT3 phosphorylation in BaF3/ITD and BaF3/TKD cells; assay type: cell-based
Experimental: as §2
BaF3 is another cell line lacking expression of endogenous FLT3. BaF3 cells transfected with mutant forms of FLT3 were starved in serum-free medium for 16 hours and washed with PBS before FL stimulation. […] Changes of other FLT3 downstream signals were not observed. An MTT survival assay was performed in BaF3/ITD and BaF3/TKD cells cultured in serum-free medium in the presence and absence of FL for 4 days. […] The effect was also confirmed by counting viable cell numbers by trypan blue exclusion (FIG. 13C, P<0.05). These findings indicate that FL stimulation prolongs the survival of cells expressing FLT3 mutants.

[5] = system: FL−/− primary hematopoietic progenitor cells expressing FLT3/ITD or FLT3/TKD; test: Colony-replating assay of FL−/− bone marrow progenitors transduced with FLT3 mutants, with FL; assay type: cell-based, mice
Excerpt: Bone marrow was harvested from FL^−/− mice, lineage depleted (Lineage Cell Depletion kit; Militenyibi Biotec, Auburn Calif.), and transduced with EF1-ITD-UBC-GFP, EF1-TKD-UBC-GFP, or EF1-UBC-GFP lentivirus by 3 rounds of spin-infection on days 1, 2 and 3. The EF1-ITD-UBC-GFP vector was constructed by inserting full-length FLT3/ITD in EF1-UBC-GFP lentiviral vector. The EF1-TKD-UBC-GFP was constructed by inserting wtFLT3 into the EF1-UBC-GFP followed by mutagenesis of wtFLT3 to substitute nucleotide G of D835 with T resulting in an Aspartic acid to Tyrosine change (QuickChange Site-Directed Mutagenesis Kit; Stratagene, La Jolla, Calif.). GFP positive cells were then sorted by FACS. 10^3 cells were plated into triplicate 35 mm Petri dishes (Nunc) in 1 ml of Methocult M3434 (StemCell Technologies Inc., Vancouver) containing 50 ng/mL rm SCF, 10 ng/mL rm IL-3, 10 ng/mL rh IL-6, and 3 units/mL rh Erythropoietin. Cultures were incubated at 37° C. in a humidified atmosphere of 5% CO2, and colonies consisting of >35 cells were scored after 9-11 days. For the colony-replating assay all cells from the previous culture were collected and re-plated at 1×10^4 cells/plate in fresh methylcellulose medium. All cells were replated three times.
To evaluate the effect of FL stimulation on primary hematopoietic progenitor cells expressing FLT3 mutants, lineage negative progenitors were harvested from FL^−/− mice and transduced with FLT3/ITD-GFP, FLT3/TKD-GFP, or GFP control lentivirus. GFP-positive cells were selected by FACS, cultured in methylcellulose with and without FL, and the colony numbers were counted after 9 days.
After colonies were counted, all of the cells in each culture dish were harvested from the methylcellulose, washed and re-plated in fresh methylcellulose medium to examine their potential to form colonies upon secondary plating; this process was repeated for two more passages to determine the frequency of tertiary and quaternary colonies. […]

[6] = system: primary AML blasts expressing homozygous FLT3/ITD mutations; test: Survival (MTT) of primary AML blasts with FL; assay type: cell-based, human; conditions: complete medium, 4 days
Experimental: 2×10^4 cells in 100 μl serum-free medium were plated into triplicate wells of 96-well plates. Survival was assessed by MTT assay (Roche, Indianapolis, Ind.) and viable cell number counting by trypan blue (GIBCO, Rockville, Md.) exclusion according to the manufacturer's instructions.
as §1

B1: FL: Recombinant human FL (fms-related tyrosine kinase ligand) purchased from PeproTech; SEQ ID NO: 1 (protein, listed as Homo sapiens)
chain: MTVLAPAWSPTTYLLLLLLLSSGLSGTQDCSFQHSPISSDFAVKIRELSDYLLQDYPVTVASNLQDEELCGGLWRLVLAQRWMERLKTVAGSKMQGLLERVNTEIHFVTKCAFQPPPSCLRFVQTNISRLLQETSEQLVALKPWITRQNFSRCLELQCQPDSSTLPPPWSPRPLEATAPTAPQPPLLLLLLLPVGLLLLAAAWCLHWQRTRRRTPRPGEQVPPVPSPQDLLLVEH
metabolic activity of the sample in culture medium [1]: increased
FLT3 phosphorylation [2]: enhanced FLT3 phosphorylation
enhancement of FLT3 phosphorylation [3]: More than 2 fold
FLT3 phosphorylation [4]: increased FLT3 phosphorylation
number of first-generation colonies ([5]; BM cells transduced with FLT3 mutants, 9 days): slightly increased
re-plating activity upon serial passages ([5]; BM cells transduced with FLT3 mutants, cultured in presence of FL): retained their re-plating activity
colony size ([5]; FL−/− BM cells expressing FLT3 mutants stimulated with FL): significant increase in colony size
patient samples with increased survival of AML blasts [6]: three of four
